The values that follow come from the supplement of paper PMC12855868.

First the molecules themselves.
B1: library; numbered along this chain (parent)
chain: MAAAGGARLLRAASAVLGGPAGRWLHHAGSRAGSSGLLRNRGPGGSAEASRSLSVSARARSSSEDKITVHFINRDGETLTTKGKVGDSLLDVVVENNLDIDGFGACEGTLACSTCHLIFEDHIYEKLDAITDEENDMLDLAYGLTDRSRLGCQICLTKSMDNMTVRVPETVADARQSIDVGKTS

In this data set the parent is B1. In words: scaled log2 fold change in cell abundance, elesclomol vs control (0 = silent mean, 1 = nonsense mean) (scaled log2 ratio); higher = higher viability under elesclomol (loss of FDX1 cuproptosis function). To be noted: glucose 10 mM.
The mark [1] stands for this setting: with ABC1 FDX1 KO, elesclomol 5 nM, 14 days.
[2] abbreviates: with HEK293T FDX1 KO, elesclomol 40 nM, 11 days.
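Note: variant abundance is its share of total variant reads in each endpoint sample, from next-generation sequencing of the integrated ORF PCR-amplified out of genomic DNA.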

For MAAAGGARLLRAASAVLGGPAGRWLHHAGSRAGSSGLLRNRGPGGSAEASRSLSVSARARSSSEDKITVHFINRDGETLTTKGKVGDSLLDVVVENNLDIDGFGACEGTLACSTCHLIFEDHIYEKLDAITDEENDMLDLAYGLTDRSRLGIQICLTKSMDNMTVRVPETVADARQSIDVGKTS, the “scaled log2 fold change” value is 1.12 under setting [1] and 1.09 under setting [2].
In the case of MAAAGGARLLRAASAVLGGPAGRWLHHAGSRAGSSGLLRNRGPGGSAEASRSLSVSARARSSSEDKITVHFINRDGETLTTKGKVGDSLLDVVVENNLDIDGFGACEGTLACSTCHLIFEDHIYEKLDAITDEENDMLDLAYGLTDRSRLGGQICLTKSMDNMTVRVPETVADARQSIDVGKTS, the “scaled log2 fold change” value is, setting by setting: under setting [1], 1.06; under setting [2], 1.28.
On the same counts, the results for MAAAGGARLLRAASAVLGGPAGRWLHHAGSRAGSSGLLRNRGPGGSAEASRSLSVSARARSSSEDKITVHFINRDGETLTTKGKVGDSLLDVVVENNLDIDGFGACEGTLACSTCHLIFEDHIYEKLDAITDEENDMLDLAYGLTDRSRLGNQICLTKSMDNMTVRVPETVADARQSIDVGKTS are 1 and 2.21.
For MAAAGGARLLRAASAVLGGPAGRWLHHAGSRAGSSGLLRNRGPGGSAEASRSLSVSARARSSSEDKITVHFINRDGETLTTKGKVGDSLLDVVVENNLDIDGFGACEGTLACSTCHLIFEDHIYEKLDAITDEENDMLDLAYGLTDRSRLGPQICLTKSMDNMTVRVPETVADARQSIDVGKTS, the “scaled log2 fold change” value was 1.08 under setting [1] and 1.13 under setting [2].
In the case of MAAAGGARLLRAASAVLGGPAGRWLHHAGSRAGSSGLLRNRGPGGSAEASRSLSVSARARSSSEDKITVHFINRDGETLTTKGKVGDSLLDVVVENNLDIDGFGACEGTLACSTCHLIFEDHIYEKLDAITDEENDMLDLAYGLTDRSRLGLQICLTKSMDNMTVRVPETVADARQSIDVGKTS, the “scaled log2 fold change” value is, setting by setting: under setting [1], 1.14; under setting [2], 1.41.
In the same order, the values of MAAAGGARLLRAASAVLGGPAGRWLHHAGSRAGSSGLLRNRGPGGSAEASRSLSVSARARSSSEDKITVHFINRDGETLTTKGKVGDSLLDVVVENNLDIDGFGACEGTLACSTCHLIFEDHIYEKLDAITDEENDMLDLAYGLTDRSRLGKQICLTKSMDNMTVRVPETVADARQSIDVGKTS are 1.05 and 0.942.
As to MAAAGGARLLRAASAVLGGPAGRWLHHAGSRAGSSGLLRNRGPGGSAEASRSLSVSARARSSSEDKITVHFINRDGETLTTKGKVGDSLLDVVVENNLDIDGFGACEGTLACSTCHLIFEDHIYEKLDAITDEENDMLDLAYGLTDRSRLGMQICLTKSMDNMTVRVPETVADARQSIDVGKTS, the “scaled log2 fold change” value was 1.16 under setting [1] and 0.861 under setting [2].
With MAAAGGARLLRAASAVLGGPAGRWLHHAGSRAGSSGLLRNRGPGGSAEASRSLSVSARARSSSEDKITVHFINRDGETLTTKGKVGDSLLDVVVENNLDIDGFGACEGTLACSTCHLIFEDHIYEKLDAITDEENDMLDLAYGLTDRSRLGHQICLTKSMDNMTVRVPETVADARQSIDVGKTS, the “scaled log2 fold change” value is, setting by setting: under setting [1], 1.12; under setting [2], 0.972.
